In publication PMC9972942, “E6-Encoded by Cancer-Causing Human Papillomavirus Interacts with Aurora Kinase A To Promote HPV-Mediated Carcinogenesis” (Journal of Virology, 2023):

T1: GST-tagged HPV16 E7 (human papillomavirus type 16, UniProt P03129 1-98)
T1 construct: E7 oncoprotein of human papillomavirus type 16; also called GST-16 E7; HPVE7; source: E. coli, purified GST fusion protein
T1 sequence: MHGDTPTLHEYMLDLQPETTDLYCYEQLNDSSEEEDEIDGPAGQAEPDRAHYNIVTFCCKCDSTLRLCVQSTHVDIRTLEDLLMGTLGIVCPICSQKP

T2: GST-tagged HPV58 E6 (human papillomavirus type 58, UniProt P26555 1-149)
T2 construct: E6 oncoprotein of human papillomavirus type 58; construct pGEX2T:HPV-58 E6; also called GST-58E6; source: E. coli, IPTG-induced, purified on glutathione-conjugated agarose
T2 sequence: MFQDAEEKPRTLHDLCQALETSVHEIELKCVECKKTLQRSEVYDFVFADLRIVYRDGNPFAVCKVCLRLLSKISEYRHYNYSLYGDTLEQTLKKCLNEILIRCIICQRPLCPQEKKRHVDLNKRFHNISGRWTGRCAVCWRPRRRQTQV

T3: GST-tagged HPV11 E6 (human papillomavirus type 11, UniProt P04019 1-150)
T3 construct: E6 protein of human papillomavirus type 11 (low-risk type); construct pGEX2T:HPV-11 E6; also called GST-11E6; lr-HPV11E6; source: E. coli, IPTG-induced, purified on glutathione-conjugated agarose
T3 sequence: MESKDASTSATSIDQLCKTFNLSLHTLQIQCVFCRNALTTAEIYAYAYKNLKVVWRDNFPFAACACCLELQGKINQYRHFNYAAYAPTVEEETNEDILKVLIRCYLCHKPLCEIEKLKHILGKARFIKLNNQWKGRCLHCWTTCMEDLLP

B1: Aurora kinase A (HA-AurA, in vitro translated) (enzyme, UniProt O14965 1-403, looked up)
chain: MDRSKENCISGPVKATAPVGGPKRVLVTQQFPCQNPLPVNSGQAQRVLCPSNSSQRIPLQAQKLVSSHKPVQNQKQKQLQATSVPHPVSRPLNNTQKSKQPLPSAPENNPEEELASKQKNEESKKRQWALEDFEIGRPLGKGKFGNVYLAREKQSKFILALKVLFKAQLEKAGVEHQLRREVEIQSHLRHPNILRLYGYFHDATRVYLILEYAPLGTVYRELQKLSKFDEQRTATYITELANALSYCHSKRVIHRDIKPENLLLGSAGELKIADFGWSVHAPSSRRTTLCGTLDYLPPEMIEGRMHDEKVDLWSLGVLCYEFLVGKPPFEANTYQETYKRISRVEFTFPDFVTEGARDLISRLLKHNPSQRPMLREVLEHPWITANSSKPSNCQNKESASKQS
notes: Aurora kinase A (AurA); plasmid pcDNA3.1:HA-AurA; the functional rows are written on this molecule; source: in vitro translated (TNT Coupled Reticulocyte Lysate System, Promega)

Legend:
[1] = target: GST-tagged HPV16 E6 with its PDZ binding motif deleted (human papillomavirus type 16)
[2] = target: GST-tagged HPV16 E6 with its PDZ binding motif deleted (human papillomavirus type 16); test: pull-down; purified GST fusion proteins on glutathione-conjugated agarose incubated with equal amounts of in vitro-translated HA-AurA, 1 h at room temperature; washed 3 times with PBS containing 0.1% Tween 20; bound AurA detected by Western blotting with an HA-specific antibody; bands quantified with ImageJ relative to GST-16E6 (n = 3)
[3] = target: T4, GST-tagged HPV16 E6 S150A (human papillomavirus type 16, UniProt P03126 1-158, S150A); test: cell-based or functional assay
[4] = target: T5, GST-tagged HPV16 E6 S89A (human papillomavirus type 16, UniProt P03126 1-158, S89A); test: cell-based or functional assay
[5] = target: GST-tagged HPV16 E6 wild type (human papillomavirus type 16, UniProt P03126 1-158); test: cell-based or functional assay
[6] = target: T6, GST-tagged HPV16 E6 T140A (human papillomavirus type 16, UniProt P03126 1-158, T140A); test: cell-based or functional assay
[7] = target: T7, GST-tagged HPV16 E6 S145A (human papillomavirus type 16, UniProt P03126 1-158, S145A); test: cell-based or functional assay
[8] = target: T4, GST-tagged HPV16 E6 S150A; test: pull-down; purified GST fusion proteins on glutathione-conjugated agarose incubated with equal amounts of in vitro-translated HA-AurA, 1 h at room temperature; washed 3 times with PBS containing 0.1% Tween 20; bound AurA detected by Western blotting with an HA-specific antibody; bands quantified with ImageJ relative to GST-16E6 (n = 3); details: one partner purified
[9] = target: T5, GST-tagged HPV16 E6 S89A; test: as above; details: one partner purified
[10] = target: T1, GST-tagged HPV16 E7; test: as above; details: one partner purified
[11] = target: T8, GST-tagged HPV18 E6 (human papillomavirus type 18, UniProt P06463 1-158); test: as above; details: one partner purified
T8 construct: E6 oncoprotein of human papillomavirus type 18; construct pGEX2T:HPV-18 E6; also called GST-18E6; source: E. coli, IPTG-induced, purified on glutathione-conjugated agarose

[12] = target: T2, GST-tagged HPV58 E6; test: as above; details: one partner purified
[13] = target: T3, GST-tagged HPV11 E6; test: as above; details: one partner purified
[14] = target: T6, GST-tagged HPV16 E6 T140A; test: as above; details: one partner purified
[15] = target: T7, GST-tagged HPV16 E6 S145A; test: as above; details: one partner purified

Molecule | AurA kinase activity (ADP-Glo) of purified AurA in the presence of GST-E6 ΔPBM, relative to AurA with GST alone [1] | AurA bound relative to GST-16E6 (%) [2] | AurA kinase activity (ADP-Glo) of purified AurA in the presence of GST-E6 S150A, relative to AurA with GST alone [3] | AurA kinase activity (ADP-Glo) of purified AurA in the presence of GST-E6 S89A, relative to AurA with GST alone [4] | AurA kinase activity (ADP-Glo) of purified AurA in the presence of GST-E6, relative to AurA with GST alone [5] | AurA kinase activity (ADP-Glo) of purified AurA in the presence of GST-E6 T140A, relative to AurA with GST alone [6] | AurA kinase activity (ADP-Glo) of purified AurA in the presence of GST-E6 S145A, relative to AurA with GST alone [7] | AurA bound relative to GST-16E6 wild type (%) [8] | AurA bound relative to GST-16E6 wild type (%) [9] | AurA bound relative to GST-16E6 (%) [10] | AurA bound relative to GST-16E6 (%) [11] | AurA bound relative to GST-16E6 (%) [12] | AurA bound relative to GST-16E6 (%) [13] | AurA bound relative to GST-16E6 wild type (%) [14] | AurA bound relative to GST-16E6 wild type (%) [15]
Aurora kinase A (HA-AurA, in vitro translated) (from UniProt O14965 1-403) (enzyme) | 0.85 | 87% | – | – | – | – | – | – | – | – | – | – | – | – | –
B1 | – | – | 0.68 | 0.65 | 0.85 | 0.61 | 0.68 | 56% | 67.3% | 37.3% | 102% | 158% | 12% | 25.3% | 24%
